Measured values from the nanobody polyreactivity screen of Harvey et al. (2022).

Assay: yeast display, Sf9 membrane polyspecificity reagent, FACS + sequencing; frameworks hold sequencing errors
Outline: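 In a synthetic yeast display library (Saccharomyces cerevisiae BJ5465), nanobody expression was induced with galactose for 36–48 hours. FACS gates were set low and high (top ~1%) using anti-HA fluorescence for expression and streptavidin fluorescence for binding of the Sf9 membrane reagent. Each polyreactivity label is drawn from the gate of origin.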

Row | Sequence | polyreactivity (PSR sort gate)
1 | QVQLVESGGGLVQAGGSLRLSCAASGSTFGYYAMGWYRQAPGKERELVATINWSGGSTYYADSEKGRFTISRDNAKNTVYLQMISLKPEDTAVYYCAADPYLQYYWAYDYWGQGTQVTVSS | low polyreactivity
2 | QVQLVESGGGLVHAGGSLRLSCASSGFTFWKYAIGGYRQAPGKERELVATISLGGARTYYADSVKGRFTISLDNAKNTVYLQMNSLKPEDTAVYYCNARCRWTANFDYWVQGTQVTVSS | high polyreactivity
3 | QVQLVESGGGLVQAGGSLRLRCAASGSIFISYAMGWYRQAPGKERELVAAISIRGTRTFYADSVKGRFTISRDNAKNTVYLQMNSLKPEDTAVYYCAARAPWPKWGYYYWGQGTQVTVSS | high polyreactivity
4 | QVQLVESGGGLVQAGGSLRLSCAASGFIFDAYAMGWYRQAPGKERELVAAISSRGGSTYYADSVKGRFTISRDNAKNTVYLQMNSLKPEDTAVYYCAAPWYQGLDYWGQGTQVTVSS | high polyreactivity
5 | QVQLVESGGGLVQAGGSLRISCAASGRIFGENAMGWYRQAPGKERELVAAIRFSSGSTYYADSVKGRFTISRDNAKNTVYLQMNSLKPEDTAVYYCNADGWYALYEWLAVSGYYWGQGTQVTVSS | low polyreactivity
6 | QVHLVESGGGLVQAGGSLRLSCAACGLTFTHYTMGWYRQAPGKERELVAAITTSGGSTYYADSLKGRFTISRDNAKKTVYLQLNSLKPEDTPVYYCAADLGGNSRLDYWGQGTQETVSS | high polyreactivity
7 | QVQLVESGGGLVQAGGRLRLSCAASGSIFHLYMGWYRQAPGKERELVAVINSSGDSTYYADSVKGRFTISRDNAKNTVYLQMNSLKPEDTAVYYCNARRRGPRYLYGYWGQGSQVTVSS | high polyreactivity
8 | QVQLVESGGGLVQAGGSLRLSCAASGGTFRRYTMGWYTQAPGKVRELVAAITTSGGSTYYADSVKGRFTISRDNAKNTVYLQMNSLKPEDTAVYYCAATRRYSGDYWGQGTQVTVSS | high polyreactivity
9 | QVQLVESGGGLVQAGGSLRLCCAASGRTFPYYAMGWYRQAPGKERELVAAISSSGGRTYYADSVKGRFTISRDNAKNTVYLQMNSLKPEDTAVYYCNVDAWYPYQGFLVGYYYWGQGTQVTVSS | low polyreactivity
10 | QVQLLESGGGLVQAGGSLRLSCAASGSTFYSYAMGGYRQAPGKERELVAAISSSSGSTYYADSVKGRFTISRDNANNSVYLQMNSLKPEDTAVYYCNRGRRYSHKYDYWGQGTQVTVSS | high polyreactivity
11 | QVKLVESGGGLVQAGGSLRLTCAASGSTLYAYAMGRYRQAPGKERELVAAISSRAVRTYYADSVKGRFTISRDNAKNTVYLQINSLKPEDTAVYYCAARGQAYSGDRMYYWGQGTQVTVSS | high polyreactivity
12 | QVQLVESGGGLVQAGGSLRLSCAASGFTFYTNAMGWYRQARGQERELVAAISSSGGRTYYADSVKGRFTISRDNAKNTVYLQMNSLKPEDTAVYYCNAYFTRSFSYIYWGQGTQVTVSS | high polyreactivity
13 | QVQLVESGGGLVQAGGSLRLSCAASGGIYYSNAMGWYRQAPGKERELVAAISRDGTITYYADSEKGRFTSSRDNAKNTVYLQMNSLKPEDTAVYSCASDPSIPSWYSIYVYWGQGTQVTVSS | high polyreactivity
14 | QVQLVESGGGLVQAGGSLRLSCAASGRIFYRYARGWYRQAPGKERELVAAITSGTSTNYADSVKGRFTFSRDNAKNTVYLQMNSLKPEDTAVYYCAKRYYCKYAEYDYWGQGTQVTVSS | high polyreactivity
15 | QVQLVESGGGLVQAGGSHRLSCAASGSTFEYNDMGGNRQEQGKERELVAAISSGGDTNYADSVKGRFTISRDNAKNTVFLQMNSLKPEDTAVYYCAADDWSPYLCYYGYAGYYYCGQGTQVTVSS | low polyreactivity
16 | QDQLVESVGGLVQAGGSLRLSCAASGSIFNRYVMGCYSQAPGKERELVAAMSRRGGNTYYADSVKGRFTISRDNAKNTVYLQMNSLKPEATAVYYCAADYSYYYGYDYWGQGTQVTVSS | high polyreactivity
17 | QVQLVESGGGLVQAGGSLRLSCAASGRTFYIYAMGWYRQAPVKERELVAAITYGGGRTFYADSVKGRFTISRDNAKNTVYLKMNSLKPEDTAVYYCARGDFYYHSRYTYYTSDYWGQGTQVTVSS | high polyreactivity
18 | QVQLVESGGGLVQAGGSLRLSCAASGITFDTYVMGWYRQAPGKERELVAAISNSDGSTYYADSVKGRFTISRDNAKNTVYLQMNSLKPEDTAVYYCNAQSYYYWHLRYDYWGQGTQVTVSS | high polyreactivity
19 | QVHLVESGGGLVQAGGSLRLSCAAAGSTSARYAMGWYRQPPGKERELVATITRSGTTKYADSVKGRFTISRDNAKNTVYLQMNSLKPEDTAVYYCNTDTYFPLYDYWGQGTQVTVSS | low polyreactivity
20 | QVQLVESGGGLVQAGGSLRLSCAASGSIFGDNAMGWYRQAPGKERELVAAISIVGSTSYADSVKGRFTISRDNAKNTVYLQMNSLKPEDTAVYDCAAEIVRSDTGFDYWGQGTQVTVSS | low polyreactivity
21 | QAELVESGGGLVQAGGSLRLSCAASGLTFRAYAMGWYRQAPGKERELVAAISWNGGSTYYADSVKGRFTISRDNAKNTVYLQMNSLKPEDTAVYYCNAYDYQYFYGYEYDYWGQGTQVTVSS | high polyreactivity
22 | QVQLVESGGGLVQAGGSLRLSCAASGSIFYFNTMAWYRQAPGKERELVAVISRRGGSTYYADSVKRRFTISRDNAKNTVYLQMNSLKPEDTAVYYCNAEVFDLWRSFLSPYEYWGQGTQVTVSS | low polyreactivity

Row | Sequence | polyreactivity (PSR sort gate)
23 | QVQLVESGGGLVQAGGSLRLSCAASGRIFGVNAMGWYTQAPGKERELVAAIRYTGGSTYYADSVKGRFTISRDNAKNTVYLQMNSLKPEDTAVYYCAKARYTYSWSFGYWGQGTQVTVSS | low polyreactivity
24 | QVQLVESGGGLVQAGGSLRLSCAASGGIFVSYAMGWYRQAPGKEWELVAAITSGGGTSYADSVKGRFTISRDNAKNTVYLQMNSLKPEDTAVYYCNADGYLAERFVIRLDEYRHYDYWGQGTQVTVSS | low polyreactivity
25 | QVQLVESAGCLVQAGASLRLSCAASGRIISRNAMGWYRQAPGKERELVAAITWRGGSTYYADSVKGRFTISRDNAKNTVYLQMNSLKPEDTAVYYCNRDYRQYGYAYSGRYYWGQGTQVTVSS | high polyreactivity
26 | QVQLVESGGGLVQAGGSLRLSCAASGSIFSVNTMGWYRQAPGKERELVAAISGSGGSTYYADSVKGRFTISRDNATNPVYLQMNSLKPEETAVYYCAKVYRRGAGYNYWGQGTQVTVSS | high polyreactivity
27 | QVQLVESRGGLVQAGGSLRLSCAASGYIINAYARGWYRQAPGKERELVAAISWSSDSTYYADSVKGRFTISRDIAKNTVYLQMNSLKPEVTAVYYCAAPYITPYGTYVFSSDYWGQGTQVTVSS | low polyreactivity
28 | QVQVVESGGGLVQAGGSLRLSCAASGSSFGVNAMGRYTQAPGKERELVASITWSGDNTYYADSVKGRFTISRDNAKNTVYLQMNSLKPEDTAVYYCAATIWIAYRGWYSDYNYWGQGTQVTVSS | low polyreactivity
29 | QVQLVESGGGLVQAGGSLRLSWAASGSFFKRNAMGSYRQAPGKEREFVAAITYNGGSTYYADSVKGRFTISRDNAMTTVYLQMNSLKPEDTAVYDCNNLYSRAQFRGGDYWAQGTQVTVSS | high polyreactivity
30 | QVQLVESVGGLVQAGGSLRLSCAASGSIFDYNGMGRYRQAPGKERELVATITLSTARTYYADSVKGRFTISRDNAKNTVYLQMNSLKPEDTAVYYCATRYPKFRRRNYWGQGTQVTVSS | high polyreactivity
31 | QVQLVESGGGLVQAGGSLRLSCAASGRLFTYYVMGWYRQAPGKERELVAAISYGGGSTYYADSVKGRFTISRDNAKNTVYLQMNSLKPEDTAVYYCAAEDGYRKMDYWGQGTQVTVSS | low polyreactivity
32 | QVQLVESGGGLVQAGGSLRLSCAASGSTFRKDAMGWYRQAPGKERELVAAISSSGGDTYYADSVKGRFTISRDNAKNTVYLQMNSLKPEDTAVYYCNTKRPYRVYFRYGYWGQGTQVTVSS | high polyreactivity
33 | QVQLVESGGGLVQAGGSLRLSCAASGRIFGRYAMGWYRQAPGKERELVAVISARGARTYYADSVKGRFTISRDNAKNTVYLQRNSLKPEDTAVYYCAVDQYATDDYWGQGTQVTVSS | high polyreactivity
34 | QVQLVESGGGLVQAGGSLRLSCAASGRIYDDYAMGWYRQAPGKERELVAAISSSGGSTYYADSVKGRFTISRDNAKNTVYLQMNSLKPEDTAVYYCARYPPGRRRYEYWGQGTQVTVSS | high polyreactivity
35 | QVQLVESGGGLVQAGRILRLSCAASGRTFDSNAMGWYRQAPGKERELVAAISYGGGTTHYADSVKGRFTISRDNAKNTVYLQMNSLKPEYTAVYYCSADPEHLCESVTIGEYDYWGQGTQVTLSS | low polyreactivity
36 | QVQLVESGGGLVQAGGSLRLSCAASGSNFAINAMGWYRQAPGKERELVAAITRTASTYADSVKGRFTISRDNAKNTVYLQMNSLKPEDTAVYYCNADFAYRYYYWGQGTQVTVSS | low polyreactivity
37 | QVQLVESGGGLVQAGGSLRLSCAASGHIFANYAMGWYRQAPGKERELVAAIRWSASRTYYADSVKGRFTISRDYAKNTVFLQLNSLKPEDTAVYYCAATIYTFWAYYYDYWGQGTQVTVSS | high polyreactivity
38 | QVQLVESGGGLVQAGGSLRLSSAATGRTFPSNAMGWYRQAPGKERELVAAISVSSGRTYYADSVKGRFTISRDNAKNTVYLLMNSLKPEDTAVYYCAALWARYPYLFGFDYWGQGTQVTVSS | high polyreactivity
39 | QVQLVESGGGLVQAGGSLRLSCAASGSTSWSNARGWYRQAPGKERELLAAITTGASTYYADSVKGRFTMSRDNAKNTVYYQMNSLKPEDTAVYYCAADPWVLWSYYYWGQGTQVTVSS | low polyreactivity
40 | QVQLVESGGGLVQAGGSLRLSCAASGSTSGPYAMGWYRQAPGKETELVATISWIGDRTYYADSVKGRFTISRDNAKNTIYLQMNSLKPEDTAVYYCNADYRGYANLEGDYWGQGTQVTVSS | low polyreactivity
41 | QVQLVESGGGLVQAGGSLRLSCAASGRICPKKGMGWYRQAPWKERELVAAITSGTSTYYADSVKGRFTISRDNAKNTVYLQMNSLKPEDTAVYYCNAVHARYRCQGDYWGQGTQVTVSS | low polyreactivity
42 | QVQLVESGGGLVQAGGSLRLSCAASGRIFGPYAMGWYRQAPGKERELVAAISFSGSGTYYADSVKGRFTISRDNAKNTVYFQMNSLKPEDTAVYYCAATSRKIVAYDHDYWGQGTQVTVSS | low polyreactivity
43 | QVQLVESGGGLVQAGGILRLSCPASGSIIVFYAMGWYRQAPGKEREIVATITWSGTSTYYADSVKGRFTISRDYAKNTVYLQKNSLKPEDTAVYYCNARTVKASYVGYNYWGQGTQVTVSS | high polyreactivity
